Test results from the nanobody polyreactivity screen of Harvey et al. (2022).

Test: yeast display, Sf9 membrane polyspecificity reagent, FACS + sequencing; frameworks hold sequencing errors
How it was run: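 Galactose induction of a Saccharomyces cerevisiae BJ5465 synthetic nanobody display library ran 36–48 hours. The cells were then stained for 1 hour at 4 °C with 10% biotinylated, detergent-solubilized Sf9 membrane reagent, pulled down on streptavidin microbeads and FACS-sorted into low and high (top ~1%) gates on expression and reagent-binding fluorescence. Labels for polyreactivity follow the gate of origin.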

| Sequence | polyreactivity (PSR sort gate) |
| --- | --- |
| QVQLVESGGGLVQAGGSLRLSCAASGFTFYYNAMGWYRQAPGKERELVAAIYSDGSTYYADSVKGRFTISRDNAKNTFYLQMNSLKAEDTAVYYCAVRKAYQYGFYYWGQGTQVTVSS | low polyreactivity |
| QVQLVESGGGLVQAGGSLRLSCAASGFTFYYNAMGWYRQAPGKERELVATISGSGGRTYYADSVKGRFTISRDNAKNTVYLQMNSLKPEDTAVYYCAARYVWSRYGYWGQGTQVTVSS | high polyreactivity |
| QVQLVESGGGLVQAGGSLRLSCAASGFTFYYYAMGWSRQAPGKERELVAAISQNGGRTYYADSVKGRFTISRDNAKNTVYLQMNSLKPEDTAVYYCAKASGYSSYGYWGQGTQVTVSS | high polyreactivity |
| QVQLVESGGGLVQAGGSLRLSCAASGFTFYYYAMGWYRQAPGKERELVAAISRGGGNTYYADSVKGRFTISRDNAKNTVYLQMNSLKPEDTAVYYCAARRPVYRIYGDRGRWYNYWGQGTQVTVSS | high polyreactivity |
| QVQLVESGGGLVQAGGSLRLSCAASGFTFYYYAMGWYRQAPGKERELVAAISSRGGNTYYADSVKGRFTISRDNAKNTVYLQMNSLKPEDTAVYYCASVPLKYDYWGQGTQVTVSS | high polyreactivity |
| QVQLVESGGGLVQAGGSLRLSCAASGFTFYYYAMGWYRQAPGKERELVAAITSGGSTYYADSVKGRFTISRDNAKNTVYLQMNSLKPEDTAVYYCNTVHYNLDYEYDYWGQGTQGTVSS | low polyreactivity |
| QVQLVESGGGLVQAGGSLRLSCAASGFTFYYYAMGWYRQAPGKERELVAAITSSGDSTFYADSVKGRFTISRDNAKNTVSLQMNSLKPEDTAVYYCAADRFQGRDDYWGQGTQGTVSS | high polyreactivity |
| QVQLVESGGGLVQAGGSLRLSCAASGFTFYYYAMGWYRQAPGKERELVATISSSGGSTHYADSVKGRFTISRDNAKNTVYLQMNSLKPEDTAVYYCAADSYWDQSHIRDYWGQGTQVTVSS | low polyreactivity |
| QVQLVESGGGLVQAGGSLRLSCAASGFTFYYYTMGWYIKAPGKERELVAAITRSGGRTYYADSVKGRFTISRDNAKNTVYLQMNSLKPEDTAVYYCAARTPFYNSYRRDYWGQGTQVTVSS | high polyreactivity |
| QVQLVESGGGLVQAGGSLRLSCAASGFTFYYYTMGWYRQAPGKERELVAVITLSDGSTNYADSVKGRFTISRDNAKNTVYLQMNSLKPEDTAVYYCDAKYVDYGYHGYDYWGQGTQVTVSS | low polyreactivity |
| QVQLVESGGGLVQAGGSLRLSCAASGFTFYYYTMGWYRQAPVKERELVAGITSRGGSTTYADSVKARFTISLDNAKNTVYLQMNSLKPEDTAVYYCNPLWAVHSGYDYLGQGTQVTVSS | high polyreactivity |
| QVQLVESGGGLVQAGGSLRLSCAASGFTIAKYAMGWYRQAPGKERELVAAISSSGGRTYYADSVKGRFTISRDIAKNTVYLQMNSLNPEDTAVYYCAADFSGPFDYWGQGTQVSVSS | high polyreactivity |
| QVQLVESGGGLVQAGGSLRLSCAASGFTIERYAMGWYRQAPGKERELVAVISTSGGSTYYADSVKGRFTISRDNAKNTVYLQMNSLKPEDTAVYYCAKDGSSRGDYHFGWGYYYWGQGSQVTVSS | low polyreactivity |
| QVQLVESGGGLVQAGGSLRLSCAASGFTIGDYAMGWYRQAPGKERELVAAITYSGGSTYYADSVKGRFTISRDNAKNTVYLQMNSLKPEDTAVYYCNADYASQSGYDYWGQGTQVTVSS | low polyreactivity |
| QVQLVESGGGLVQAGGSLRLSCAASGFTIGKNAMGWYRQAPGKERELVAAISLSGGRTYADSVKGRFTISRDNAKNTVYLQMNSLKPEDTAVYYCAANRYPKFYWGQGTQVTVSS | high polyreactivity |
| QVQLVESGGGLVQAGGSLRLSCAASGFTIRRYAMGWYRQAPGKERELVAAITTGGSTYYADSVKGRFTISRDNAKNTVYLQMNSLKPEDTAVYYCAALYPYKQYRLGYDSWGQGTQVTVSS | high polyreactivity |
| QVQLVESGGGLVQAGGSLRLSCAASGFTIRSYAMGWYRQAPGKERELVAGITWRSSSTYYADSVKGRFTISRDNAKNTVYLQMNSLKPEDTAVYYCAARAVYRFNYWGQGTQVTVSS | high polyreactivity |
